The source of these data is patent publication US20120122765A1, “COMPOUNDS AND RELATED METHODS FOR MANIPULATING PARP-1-DEPENDENT CELL DEATH” (priority 2010, published 2012).

Entries after “also recorded” stand apart in the source; their conditions may differ.

Assay [1] deals with mitochondria of HeLa cells. As to the kind of experiment: in vitro AIF release from mitochondria of HeLa cells. The settings on record: purified PAR, transiently transfected HeLa cells.
Description: (§1) Unless otherwise set forth herein, mitochondria isolation and in vitro AIF release assays as referenced in the examples below were performed using the following materials and procedures. Mitochondria were prepared from HeLa cells and cortical neurons as follows by harvesting cells, re-suspending them in 2 ml MIB buffer (10 mM HEPES, pH 7.4, 300 mM sucrose, 1 mM EGTA), and homogenizing by 60 strokes with B type Dounce homogenizer. Nuclei were pelleted at 750×g for 5 minutes and mitochondria were spun down at 3,000×g for 10 minutes. Isolated mitochondria were dissolved in a minimum volume of sucrose buffer (10 mM HEPES, pH 7.4, 300 mM sucrose) and protein concentration was adjusted to 2 mg/ml. […] In vitro AIF release was carried out at room temperature for 30 minutes in assay buffer (20 mM HEPES, pH 7.4, 125 mM KCl, 2 mM K2HPO4, 4 mM MgCl2, 5 mM succinate, 2 mM rotenone, 3 μM ATP and 1 μM ADP) in the presence of 100 nM PAR and 1 mg/ml isolated mitochondria. […]
(§2) Next, Applicants used Hq cortical neurons transduced with WT-AIF-Flag or Pbm-AIF-Flag lentiviruses to determine whether PAR plays a direct role in mitochondrial AIF release. […] Three days after lentivirus infection, mitochondria were isolated and exposed to purified PAR to elicit in vitro AIF release by incubation with PAR for 30 minutes, and the levels of AIF were determined in the mitochondria and in the supernatant.
Assay [2] deals with PAR. As to the kind of experiment: co-immunoprecipitation with PAR in HeLa cells. It counts as cell-based. As to the method:
The following experiment was performed to confirm whether AIF in fact binds to PAR in intact cells. Applicants exposed HeLa cells stably transduced with lentivirus C-terminal Flag-tagged mouse wild type AIF (WT-AIF-Flag) to MNNG, a DNA alkylating agent that activates PARP-1 and kills cells primarily through parthanatos. […] FIG. 2A comprises two side by side black and white photos of representative gels obtained by Applicants, showing the impact of MNNG upon these HeLa cells (left photo being HeLa cells without MNNG, and right photo being HeLa cells 2 hours after MNNG treatment at 50 μM for 15 min). […] FIG. 2B is a chart reporting the data regarding the relative intensity of the interaction pre and post MNNG for these experiments (*** indicates p<0.001).

Assay [3] concerns Hq mouse cortical neuronal cultures. As to the kind of experiment: AIF translocation to the nucleus in Hq cortical neurons. The assay is classed as cell-based. Here is the method: Unless otherwise set forth herein, immunocytochemistry, immunohistochemistry and confocal microscopy as referenced in the examples entailed the following materials and procedures. […] AIF was visualized by 2 μg/ml mouse anti-Flag/Cyt AffiniPure Donkey Anti-Mouse IgG or rabbit anti-AIF/Cy3 AffiniPure Donkey Anti-Rabbit IgG. Immunohistochemistry was performed using the antibody against Flag. Immunofluorescence analysis thereafter was carried out by using a LSM510 confocal laser scanning microscope (obtained from Carl Zeiss Microlmaging) as described by H. Wang et al. (J. Neurosci, 2004).
Again, AIF translocation to the nucleus was monitored two hours after NMDA (500 μM, 5 minutes) treatment sufficient to initiate parthanatos in wild-type cells.

A further assay has as its system HeLa cells. As to the kind of experiment: AIF nuclear translocation in HeLa cells after MNNG. It counts as cell-based. The settings on record: MNNG 50 μM for 15 minutes, confocal image analysis. As to the method:
Unless otherwise set forth herein, immunocytochemistry, immunohistochemistry and confocal microscopy as referenced in the examples entailed the following materials and procedures. For immunocytochemistry, cells were fixed 2 hours after treatment with 4% paraformaldehyde, permeabilized with 0.05% Triton X-100, and blocked with 3% bovine serum albumin in PBS. AIF was visualized by 2 μg/ml mouse anti-Flag/Cyt AffiniPure Donkey Anti-Mouse IgG or rabbit anti-AIF/Cy3 AffiniPure Donkey Anti-Rabbit IgG. Immunohistochemistry was performed using the antibody against Flag. Immunofluorescence analysis thereafter was carried out by using a LSM510 confocal laser scanning microscope (obtained from Carl Zeiss Microlmaging) as described by H. Wang et al. (J. Neurosci, 2004).

The subject of a further assay is Hq cortical neurons. As to the kind of experiment: NMDA excitotoxicity in Hq cortical neurons. It counts as cell-based, mouse. The note with it: lentivirus-transduced Hq cortical neurons, NMDA 500 μM for 5 min, 24, 36, 48 hours. As to the method:
HQ cortical neuron cells were transduced with lentivirus carrying WT-AIF-Flag or Pbm-AIF-Flag. Non-transduced neurons and GFP-lentivirus infected cells were used as negative controls. […] In those photos, blue indicates Hoechst 33342 staining and red indicates propidium iodide staining. […] The cytotoxicity in these Hq cortical neurons was measured at 24 hours, 36 hours, and 48 hours after NMDA (500 μM for 5 min) treatment, and the data for this is reported in the graph of FIG. 18B.

The next assay has as its system Hq MEFs. As to the kind of experiment: MNNG cytotoxicity in Hq MEFs. The assay is classed as cell-based, mouse. The note with it: Hq MEFs, 24 hours after MNNG 500 μM for 15 min. Here is the method: Further, the effect WT-AIF-Flag or Pbm-AIF-Flag on Hq MEF cell viability was determined 24 hours after MNNG (500 μM for 15 min) cytotoxicity with and without zVAD (100 μM), and the results of three trials is reported in FIG. 17B.

Assay [4] has as its system PAR. As to the kind of experiment: co-immunoprecipitation with PAR in Hq cortical neurons.
Description: For co-immunoprecipitation, the post-nuclear cell extracts, which is the fraction prepared from whole cell lysates after removing nuclear proteins, were isolated in hypotonic buffer as previously described by S. Andrabi et al., and then incubated overnight with an antibody against PAR in the presence of protein A/G Sepharose (obtained from Santa Cruz Biotechnology, of Santa Cruz, Calif.), followed by immunoblot analysis with mouse anti-Flag antibody (obtained from Sigma). The proteins were separated on denaturing polyacrylamide gel electrophoresis (SDS-PAGE) and transferred to nitrocellulose membrane. […] After washing, the immune complexes were detected by the SuperSignal West Pico Chemiluminescent Substrate. The integrity of the nuclear and postnuclear subcellular fractions was determined by monitoring histone and MnSOD immunoreactivity, respectively.
To determine whether Pbm-AIF fails to bind to PAR in cultured cortical neurons, neuronal cultures were transduced by lentivirus with WT-AIF-Flag or Flag-tagged Pbm-AIF (“Pbm-AIF-Flag”). […] AIF was translocation to the nucleus for each neuron culture was monitored 2 hours after administration of NMDA (500 μM NMDA for 5 minutes). […]
For assay [5], the system named is Hq mice. As to the kind of experiment: NMDA excitotoxicity in striatum of Hq mice.
Description: 1 μl Lentivirus (5×1010 T.U./ml) carrying WT-AIF-Flag, Pbm-AIF-Flag, or GFP was injected into striatum on both sides of the brain (rostral, 0.4 mm; lateral+/−1.7 mm; ventral 3.5 mm from bregma), and 1 μl AAV2 (1×1013 T.U./ml) carrying WT-AIF-Flag, Pbm-AIF-Flag or GFP was injected into CA1 in hippocampi on both sides of the brain (posterior, 2.0 mm; lateral+/−1.5 mm; ventral 1.5 mm from bregma) using a stereotactic frame (Kopf) (0.02 ml/min). The needle was left in place for an additional 8 minutes after injection. One week after the first injection, 20 nmol NMDA or normal saline in 0.8 μl was injected into the right and left striatum (0.02 μl/min), respectively. The needle was left in place for an additional 8 minutes after injection. Lesion volumes were assessed at 48 hours, 60 hours, or 168 hours after NMDA administration. At the indicated time point after the second injection, the mice were deeply anesthetized, and then perfused with saline and 4% paraformaldehyde. After postfixation and freezing in 20% glycerol-PBS, brain sections (30 μm) were obtained for Nissl staining and immunohistochemistry analysis.
Applicants next assessed whether replacement of WT-AIF-Flag or Pbm-AIF-Flag through lentiviral transduction would restore the sensitivity of Hq mice to NMDA excitotoxicity. […]
Assay [6] deals with Hq mice. As to the kind of experiment: NMDA excitotoxicity in hippocampal CA1 region of Hq mice. It counts as in vivo, mouse. The note with it: AAV2 in CA1, 60 hours after NMDA. Here is the method: Seven days following virus injection, Applicants injected NMDA into the right CA1 region and saline into the left CA1 region, and then assessed CA1 lesion volume 60 hours later. […] FIG. 20B is an array of six representative Nissl staining photos taken 60 hours post NMDA injection, while FIG. 20C is a graph of the experimental data obtained for lesion volume percentages.

Assay [7] deals with mitochondria isolated from cortical neurons. As to the kind of experiment: in vitro AIF release from mitochondria of Hq cortical neurons. The note with it: incubation with purified PAR for 30 minutes.
Description: as §1, §2

B1: WT-AIF-Flag: C-terminal Flag-tagged mouse wild type AIF, delivered by lentivirus, AAV2 or transfection (protein, UniProt Q9Z0X1 1-612, looked up)
chain: MFRCGGLAGAFKQKLVPLVRTVYVQRPKQRNRLPGNLFQQWRVPLELQMARQMASSGSSGGKMDNSVLVLIVGLSTIGAGAYAYKTIKEDQKRYNERVMGLGLSPEEKQRRAIASATEGGSVPQIRAPSHVPFLLIGGGTAAFAAARSIRARDPGARVLIVSEDPELPYMRPPLSKELWFSDDPNVTKTLQFRQWNGKERSIYFQPPSFYVSAQDLPNIENGGVAVLTGKKVVHLDVRGNMVKLNDGSQITFEKCLIATGGTPRSLSAIDRAGAEVKSRTTLFRKIGDFRALEKISREVKSITVIGGGFLGSELACALGRKSQASGIEVIQLFPEKGNMGKILPQYLSNWTMEKVKREGVKVMPNAIVQSVGVSGGRLLIKLKDGRKVETDHIVTAVGLEPNVELAKTGGLEIDSDFGGFRVNAELQARSNIWVAGDAACFYDIKLGRRRVEHHDHAVVSGRLAGENMTGAAKPYWHQSMFWSDLGPDVGYEAIGLVDSSLPTVGVFAKATAQDNPKSATEQSGTGIRSESETESEASEITIPPSAPAVPQVPVEGEDYGKGVIFYLRDKVVVGIVLWNVFNRMPIARKIIKDGEQHEDLNEVAKLFNIHED
modifications: full-length C-terminal Flag tag
notes: C-terminal Flag-tagged mouse wild type AIF, delivered by lentivirus, AAV2 or transfection
Consider B1, for which the “PAR-induced release from mitochondria” value in [1] and in assay [7] was “induced the release” throughout. Also, in the assay with PAR [2] (2 hours after MNNG 50 μM for 15 min), the “change of interaction with PAR following MNNG treatment” value is on record as “significantly increased”. In addition, the “co-immunoprecipitation with PAR” value is on record as “co-immunoprecipitated with PAR in resting cells” in the assay with PAR [2] (postnuclear fractions, non-MNNG- and MNNG-treated HeLa cells); “pulled down” with PAR [4] (postnuclear fractions, non-NMDA- and NMDA-treated cultures). The “translocation to the nucleus after staurosporine” value in assay [3] (100 nM staurosporine, 24 hours) is “translocate from the mitochondria to the nucleus”. Moreover, the “translocation to the nucleus after NMDA” value in assay [3] (two hours after NMDA (500 μM, 5 minutes), immunoblot of fractions or confocal image analysis) is reported as “translocated to the nucleus; also recorded: observed in the nucleus”. The “nuclear translocation after MNNG” value with HeLa cells was “translocated to the nucleus 4 hours following MNNG treatment”. Further, the “effect on susceptibility to NMDA excitotoxicity” value in the assay on Hq cortical neurons is recorded as “restored Hq cortical neuron susceptibility to NMDA excitotoxicity”. Moreover, the “effect on MNNG-induced cell death” value in the assay on Hq MEFs was “restored their susceptibility to MNNG toxicity”. In addition, the “change of interaction with PAR following NMDA treatment” value in the assay on PAR [4] (2 hours after 500 μM NMDA for 5 minutes) is on record as “significantly increased”. In addition, in the assay on Hq mice [5] (lentivirus in striatum, NMDA 20 nmol, 48 hours or 60 hours), the “sensitivity to NMDA excitotoxicity (lesion volume)” value was “restored sensitivity to NMDA excitotoxicity”. In addition, the “survival after the NMDA injection” value in the assay with Hq mice [5] (lentivirus-injected Hq mice, WT-AIF-Flag with one exception) was less than 168 h. Besides, the CA1 lesion volume entry in the assay on Hq mice [6] is reported as “large lesion volume”.
